Experimental data as given in paper PMC2834481.

Target: squid Munc18-1 (squid)
Assay: ITC

Row | Substance | Kd [µM]
1 | synaptobrevin(77-96) peptide (from UniProt P63045 77-96) | 13.5
2 | synaptobrevin(49-96) (from UniProt P63045 49-96) (domain or fragment) | 13.3
